{"source": "IntAct's records for PubMed 12692135", "parents": {"B1": {"name": "Tumor protein 63 (Homo sapiens), Q9H3D4 (parent)", "chain": "MNFETSRCATLQYCPDPYIQRFVETPAHFSWKESYYRSTMSQSTQTNEFLSPEVFQHIWDFLEQPICSVQPIDLNFVDEPSEDGATNKIEISMDCIRMQDSDLSDPMWPQYTNLGLLNSMDQQIQNGSSSTSPYNTDHAQNSVTAPSPYAQPSSTFDALSPSPAIPSNTDYPGPHSFDVSFQQSSTAKSATWTYSTELKKLYCQIAKTCPIQIKVMTPPPQGAVIRAMPVYKKAEHVTEVVKRCPNHELSREFNEGQIAPPSHLIRVEGNSHAQYVEDPITGRQSVLVPYEPPQVGTEFTTVLYNFMCNSSCVGGMNRRPILIIVTLETRDGQVLGRRCFEARICACPGRDRKADEDSIRKQQVSDSTKNGDGTKRPFRQNTHGIQMTSIKKRRSPDDELLYLPVRGRETYEMLLKIKESLELMQYLPQHTIETYRQQQQQQHQHLLQKQTSIQSPSSYGNSSPPLNKMNSMNKLPSVSQLINPQQRNALTPTTIPDGMGANIPMMGTHMPMAGDMNGLSPTQALPPPLSMPSTSHCTPPPPYPTDCSIVSFLARLGCSSCLDYFTTQGLTTIYQIEHYSMDDLASLKIPEQFRHAIWKGILDHRQLHEFSSPSHLLRTPSSASTVSVGSSETRGERVIDAVRFTLRQTISFPPRDEWNDFNFDMDARRNKQQRIKEEGE", "partner": "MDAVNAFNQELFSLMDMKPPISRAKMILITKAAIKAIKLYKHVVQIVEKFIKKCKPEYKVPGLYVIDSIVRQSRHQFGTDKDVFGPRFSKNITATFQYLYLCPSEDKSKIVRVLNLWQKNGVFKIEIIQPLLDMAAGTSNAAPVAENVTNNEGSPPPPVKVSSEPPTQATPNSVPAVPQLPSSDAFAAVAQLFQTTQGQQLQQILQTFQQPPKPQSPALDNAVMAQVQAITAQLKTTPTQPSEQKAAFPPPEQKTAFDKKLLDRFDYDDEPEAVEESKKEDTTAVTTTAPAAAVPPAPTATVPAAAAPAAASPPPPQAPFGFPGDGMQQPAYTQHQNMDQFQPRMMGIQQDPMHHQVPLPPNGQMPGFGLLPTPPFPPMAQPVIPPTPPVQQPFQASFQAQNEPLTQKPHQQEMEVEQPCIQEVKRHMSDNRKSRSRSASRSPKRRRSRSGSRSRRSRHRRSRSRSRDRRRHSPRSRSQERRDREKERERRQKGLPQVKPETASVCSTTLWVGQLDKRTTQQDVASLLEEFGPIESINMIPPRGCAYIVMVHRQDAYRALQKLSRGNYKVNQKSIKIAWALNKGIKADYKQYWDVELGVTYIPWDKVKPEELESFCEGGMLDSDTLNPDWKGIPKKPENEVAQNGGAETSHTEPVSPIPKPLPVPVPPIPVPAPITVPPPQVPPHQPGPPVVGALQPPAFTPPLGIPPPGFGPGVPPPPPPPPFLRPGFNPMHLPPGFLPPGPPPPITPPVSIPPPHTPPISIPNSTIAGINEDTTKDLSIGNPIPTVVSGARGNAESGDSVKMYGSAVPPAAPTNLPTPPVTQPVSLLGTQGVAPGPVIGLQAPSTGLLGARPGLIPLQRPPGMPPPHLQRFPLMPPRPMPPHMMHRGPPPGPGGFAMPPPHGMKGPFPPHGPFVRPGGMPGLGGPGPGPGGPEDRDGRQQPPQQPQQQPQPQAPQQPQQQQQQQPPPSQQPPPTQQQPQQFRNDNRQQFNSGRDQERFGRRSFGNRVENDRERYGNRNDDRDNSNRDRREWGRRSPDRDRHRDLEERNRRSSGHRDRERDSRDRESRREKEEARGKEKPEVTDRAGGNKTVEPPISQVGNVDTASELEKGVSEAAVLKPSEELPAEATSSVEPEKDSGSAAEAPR"}, "B2": {"name": "Tumor protein 63 (Homo sapiens), Q9H3D4-2 (parent)", "chain": "MLYLENNAQTQFSEPQYTNLGLLNSMDQQIQNGSSSTSPYNTDHAQNSVTAPSPYAQPSSTFDALSPSPAIPSNTDYPGPHSFDVSFQQSSTAKSATWTYSTELKKLYCQIAKTCPIQIKVMTPPPQGAVIRAMPVYKKAEHVTEVVKRCPNHELSREFNEGQIAPPSHLIRVEGNSHAQYVEDPITGRQSVLVPYEPPQVGTEFTTVLYNFMCNSSCVGGMNRRPILIIVTLETRDGQVLGRRCFEARICACPGRDRKADEDSIRKQQVSDSTKNGDGTKRPFRQNTHGIQMTSIKKRRSPDDELLYLPVRGRETYEMLLKIKESLELMQYLPQHTIETYRQQQQQQHQHLLQKQTSIQSPSSYGNSSPPLNKMNSMNKLPSVSQLINPQQRNALTPTTIPDGMGANIPMMGTHMPMAGDMNGLSPTQALPPPLSMPSTSHCTPPPPYPTDCSIVSFLARLGCSSCLDYFTTQGLTTIYQIEHYSMDDLASLKIPEQFRHAIWKGILDHRQLHEFSSPSHLLRTPSSASTVSVGSSETRGERVIDAVRFTLRQTISFPPRDEWNDFNFDMDARRNKQQRIKEEGE"}, "B3": {"name": "Tumor protein 63 (Homo sapiens), Q9H3D4 (parent)", "chain": "B1 chain"}}, "data": [{"variants_of": "B1", "details": "with scaf4_human SCAF4, O95104", "values": [{"variant": "L553F", "effect of a mutation on the interaction": "disrupting interaction strength"}]}, {"variants_of": "B2", "details": "with roaa_human HNRNPAB", "values": [{"variant": "Q481L", "effect of a mutation on the interaction": "disrupting interaction strength"}, {"variant": "G475V", "effect of a mutation on the interaction": "disrupting interaction strength"}, {"variant": "I482T", "effect of a mutation on the interaction": "disrupting interaction strength"}, {"variant": "C467V", "effect of a mutation on the interaction": "disrupting interaction strength"}]}, {"variants_of": "B2", "details": "with roaa_human HNRNPAB", "remark": "another data set of the same source", "values": [{"variant": "L459F", "effect of a mutation on the interaction": "disrupting interaction strength"}]}, {"variants_of": "B3", "details": "with rack1_human RACK1, P63244", "values": [{"variant": "L553F", "effect of a mutation on the interaction": "with no effect"}]}, {"variants_of": "B3", "details": "with roaa_human HNRNPAB", "values": [{"variant": "L553F", "effect of a mutation on the interaction": "disrupting interaction strength"}]}, {"variants_of": "B3", "details": "with roaa_human HNRNPAB", "remark": "another data set of the same source", "values": [{"variant": "L553F", "effect of a mutation on the interaction": "disrupting interaction strength"}, {"variant": "I576T", "effect of a mutation on the interaction": "disrupting interaction strength"}, {"variant": "G569V", "effect of a mutation on the interaction": "disrupting interaction strength"}, {"variant": "Q575L", "effect of a mutation on the interaction": "disrupting interaction strength"}, {"variant": "C561V", "effect of a mutation on the interaction": "disrupting interaction strength"}]}]}
